{"source": "patent US11976099B2", "about": "“Compositions and methods for treatment of bone associated diseases” (THE NATIONAL INSTITUTE FOR BIOTECHNOLOGY IN THE NEGEV LTD., priority 2016, dated 2024)", "molecular_target": "T1, αvβ3 integrin (Homo sapiens, UniProt P05106+P06756, DEL719-788)", "T1 construct": "purchased R&D Systems", "T1 sequence (P06756 31-992 limits assumed, stated change not applied)": "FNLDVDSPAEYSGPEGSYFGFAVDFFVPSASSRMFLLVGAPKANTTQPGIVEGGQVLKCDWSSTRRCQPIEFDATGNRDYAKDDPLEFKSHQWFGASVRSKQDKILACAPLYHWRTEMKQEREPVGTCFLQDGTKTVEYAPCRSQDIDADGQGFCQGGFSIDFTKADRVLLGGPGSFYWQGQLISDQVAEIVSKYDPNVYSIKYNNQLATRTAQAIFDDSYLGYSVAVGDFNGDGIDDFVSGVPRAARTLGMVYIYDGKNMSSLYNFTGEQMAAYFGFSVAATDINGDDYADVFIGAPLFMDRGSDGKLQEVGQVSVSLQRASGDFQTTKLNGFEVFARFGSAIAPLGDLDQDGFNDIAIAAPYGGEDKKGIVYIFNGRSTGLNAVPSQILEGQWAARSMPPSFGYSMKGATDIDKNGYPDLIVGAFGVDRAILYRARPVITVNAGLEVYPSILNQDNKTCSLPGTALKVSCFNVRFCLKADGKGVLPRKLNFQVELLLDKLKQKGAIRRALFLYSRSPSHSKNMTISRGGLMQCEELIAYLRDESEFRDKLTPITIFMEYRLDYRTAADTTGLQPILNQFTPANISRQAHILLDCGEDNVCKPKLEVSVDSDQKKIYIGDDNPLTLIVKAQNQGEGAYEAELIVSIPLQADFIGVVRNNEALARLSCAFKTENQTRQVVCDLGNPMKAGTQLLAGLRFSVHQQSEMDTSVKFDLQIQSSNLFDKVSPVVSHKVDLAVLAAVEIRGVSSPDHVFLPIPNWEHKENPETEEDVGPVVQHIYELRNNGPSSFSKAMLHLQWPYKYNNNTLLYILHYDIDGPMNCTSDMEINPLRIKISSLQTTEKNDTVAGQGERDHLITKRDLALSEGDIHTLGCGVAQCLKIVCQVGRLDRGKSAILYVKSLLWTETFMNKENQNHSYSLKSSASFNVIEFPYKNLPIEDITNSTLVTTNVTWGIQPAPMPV", "T1 sequence (P05106 27-718 limits assumed, stated change not applied)": "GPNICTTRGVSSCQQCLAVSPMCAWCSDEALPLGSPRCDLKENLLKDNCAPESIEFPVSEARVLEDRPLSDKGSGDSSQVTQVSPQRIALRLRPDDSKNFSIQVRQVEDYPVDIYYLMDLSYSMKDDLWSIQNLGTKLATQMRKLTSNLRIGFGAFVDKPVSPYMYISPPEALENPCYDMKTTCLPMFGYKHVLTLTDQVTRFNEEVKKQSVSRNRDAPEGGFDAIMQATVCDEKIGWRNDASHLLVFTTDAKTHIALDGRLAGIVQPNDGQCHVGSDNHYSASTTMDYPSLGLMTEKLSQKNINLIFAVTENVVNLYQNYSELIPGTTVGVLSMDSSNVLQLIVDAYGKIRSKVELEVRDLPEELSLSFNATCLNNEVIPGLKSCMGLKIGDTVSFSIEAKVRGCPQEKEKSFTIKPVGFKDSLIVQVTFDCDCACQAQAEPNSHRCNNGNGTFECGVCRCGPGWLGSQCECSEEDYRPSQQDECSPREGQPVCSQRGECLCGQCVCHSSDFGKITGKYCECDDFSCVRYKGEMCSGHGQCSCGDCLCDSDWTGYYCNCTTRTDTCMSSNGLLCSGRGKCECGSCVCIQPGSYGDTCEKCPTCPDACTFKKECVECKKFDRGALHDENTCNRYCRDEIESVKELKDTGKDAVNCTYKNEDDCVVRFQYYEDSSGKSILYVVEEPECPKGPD", "assay": "YSD binding of M-CSFM to αvβ3 integrin", "details": "even at high concentrations of 200 nM", "description": "For expressing the M-CSFM gene and the two M-CSFRGD libraries on the yeast surface, the SDCAA medium was replaced by SGCAA medium (2% galactose, 0.67% yeast nitrogen base, 0.5% bacto casamino acids, 1.47% sodium citrate, 0.429% citric acid monohydrate) and the yeasts were incubated overnight at 30° C. until the culture reached OD600=10.0 (10^8 cells per ml). A number of cells equal to ten times the library size was added to 1 ml of PBS containing 1% bovine serum albumin (PBSA); the suspension was centrifuged, and the supernatant was removed. For binding analysis of M-CSFM and the M-CSFRGD libraries to c-FMS, yeast cells were incubated with mouse anti c-myc antibody, 9E10 (Abcam, Cambridge, MA, USA) in a 1:50 ratio and different concentrations of soluble Fc conjugated human c-FMS (R&D systems, USA) for 1 h at room temperature. After an additional washing step, cells were labeled with secondary PE anti mouse (Sigma-Aldrich, St. Louis, MO, USA) and goat anti human Fc FITC antibodies (Sigma-Aldrich) for 30 min at 4° C. in the dark. For binding analysis of M-CSFRGD libraries to integrin, the experiment was performed with integrin binding buffer (IBB; 20 mM Tris, pH7.5, 2 mM CaCl2, 100 mM NaCl, 1 mM MgCl2, and 1 mM MnCl2)+1% BSA. The yeast cells were incubated with chicken anti c-myc and different concentrations of soluble human αvβ3 integrin (R&D Systems, Minneapolis, MN, USA) for 1 h. […]"}
{"molecule": "M-CSFM: 158 amino acid M-CSF with cysteine at position 31 replaced by serine (SEQ ID NO: 2) (protein) EEVSEYCSHMIGSGHLQSLQRLIDSQMETSSQITFEFVDQEQLKDPVCYLKKAFLLVQDIMEDTMRFRDNTPNAIAIVQLQELSLRLKSCFTKDYEEHDKACVRTFYETPLQLLEKVKNVFNETKNLLDKDWNIFSKNCNNSFAECSSQGHERQSEGS", "values": [{"measurement": "binding to αvβ3 integrin", "result": "did not bind"}]}
